Test results: the supplement of paper PMC10065799, “High-throughput profiling of sequence recognition by tyrosine kinases and SH2 domains using bacterial peptide display” (eLife, 2023)

How the values were obtained:
[1] = tested on: AncSZ; test: phosphorylation enrichment, bacterial display (enrichment ratio); higher = better substrate or ligand; peptides without Tyr show the background
[2] = target: EPHB1 (UniProt P54762); test: as above
[3] = target: EPHB2 (UniProt P29323); test: as above
[4] = target: FGFR1 (UniProt P11362); test: as above
FGFR1, sequence (P11362 whole entry, looked up): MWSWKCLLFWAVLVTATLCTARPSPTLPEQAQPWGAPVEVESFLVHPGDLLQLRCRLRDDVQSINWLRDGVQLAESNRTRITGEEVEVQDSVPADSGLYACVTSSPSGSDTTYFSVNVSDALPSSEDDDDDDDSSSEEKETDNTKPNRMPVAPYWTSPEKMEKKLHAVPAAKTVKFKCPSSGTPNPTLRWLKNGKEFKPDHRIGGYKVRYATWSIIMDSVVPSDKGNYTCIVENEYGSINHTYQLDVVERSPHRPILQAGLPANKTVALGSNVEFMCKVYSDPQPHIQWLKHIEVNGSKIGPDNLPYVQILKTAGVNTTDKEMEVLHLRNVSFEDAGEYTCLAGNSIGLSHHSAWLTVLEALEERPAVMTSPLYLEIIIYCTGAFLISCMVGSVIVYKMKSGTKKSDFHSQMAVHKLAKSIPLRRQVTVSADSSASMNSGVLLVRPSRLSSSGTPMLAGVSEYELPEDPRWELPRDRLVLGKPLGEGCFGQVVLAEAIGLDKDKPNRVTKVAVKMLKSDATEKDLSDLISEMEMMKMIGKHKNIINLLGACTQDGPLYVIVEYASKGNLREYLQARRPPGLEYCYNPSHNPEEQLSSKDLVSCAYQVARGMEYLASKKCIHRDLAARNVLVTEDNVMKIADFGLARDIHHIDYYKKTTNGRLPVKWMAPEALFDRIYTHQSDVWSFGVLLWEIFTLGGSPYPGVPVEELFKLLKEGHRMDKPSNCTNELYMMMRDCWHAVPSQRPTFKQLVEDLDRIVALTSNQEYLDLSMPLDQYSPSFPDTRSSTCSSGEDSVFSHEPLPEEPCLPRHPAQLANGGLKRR

[5] = target: FGFR3 (UniProt P22607); test: as above
FGFR3, sequence (P22607 whole entry, looked up): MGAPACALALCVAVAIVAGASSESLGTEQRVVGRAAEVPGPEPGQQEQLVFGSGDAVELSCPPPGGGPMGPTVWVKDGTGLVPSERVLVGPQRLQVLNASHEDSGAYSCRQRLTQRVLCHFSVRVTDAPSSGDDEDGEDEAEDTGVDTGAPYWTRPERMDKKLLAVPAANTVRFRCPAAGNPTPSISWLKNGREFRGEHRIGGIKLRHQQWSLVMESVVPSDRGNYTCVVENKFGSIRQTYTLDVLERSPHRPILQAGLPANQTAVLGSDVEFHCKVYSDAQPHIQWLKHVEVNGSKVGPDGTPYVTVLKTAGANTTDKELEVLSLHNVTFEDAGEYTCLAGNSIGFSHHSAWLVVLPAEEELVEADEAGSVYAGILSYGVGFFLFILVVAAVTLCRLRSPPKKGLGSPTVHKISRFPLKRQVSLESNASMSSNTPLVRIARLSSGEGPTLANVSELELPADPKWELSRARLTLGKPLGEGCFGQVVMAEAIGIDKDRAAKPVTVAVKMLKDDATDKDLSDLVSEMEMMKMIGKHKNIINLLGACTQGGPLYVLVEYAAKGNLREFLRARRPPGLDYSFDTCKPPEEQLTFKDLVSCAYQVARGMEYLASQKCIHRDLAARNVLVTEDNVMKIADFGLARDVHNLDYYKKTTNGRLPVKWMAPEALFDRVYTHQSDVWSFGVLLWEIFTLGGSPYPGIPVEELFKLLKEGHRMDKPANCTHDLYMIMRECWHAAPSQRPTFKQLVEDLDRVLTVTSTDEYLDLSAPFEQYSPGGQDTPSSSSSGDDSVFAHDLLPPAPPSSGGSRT

[6] = tested on: Fer (mouse); test: as above
[7] = target: Fes (UniProt P07332); test: as above
Fes, sequence (P07332 whole entry, looked up): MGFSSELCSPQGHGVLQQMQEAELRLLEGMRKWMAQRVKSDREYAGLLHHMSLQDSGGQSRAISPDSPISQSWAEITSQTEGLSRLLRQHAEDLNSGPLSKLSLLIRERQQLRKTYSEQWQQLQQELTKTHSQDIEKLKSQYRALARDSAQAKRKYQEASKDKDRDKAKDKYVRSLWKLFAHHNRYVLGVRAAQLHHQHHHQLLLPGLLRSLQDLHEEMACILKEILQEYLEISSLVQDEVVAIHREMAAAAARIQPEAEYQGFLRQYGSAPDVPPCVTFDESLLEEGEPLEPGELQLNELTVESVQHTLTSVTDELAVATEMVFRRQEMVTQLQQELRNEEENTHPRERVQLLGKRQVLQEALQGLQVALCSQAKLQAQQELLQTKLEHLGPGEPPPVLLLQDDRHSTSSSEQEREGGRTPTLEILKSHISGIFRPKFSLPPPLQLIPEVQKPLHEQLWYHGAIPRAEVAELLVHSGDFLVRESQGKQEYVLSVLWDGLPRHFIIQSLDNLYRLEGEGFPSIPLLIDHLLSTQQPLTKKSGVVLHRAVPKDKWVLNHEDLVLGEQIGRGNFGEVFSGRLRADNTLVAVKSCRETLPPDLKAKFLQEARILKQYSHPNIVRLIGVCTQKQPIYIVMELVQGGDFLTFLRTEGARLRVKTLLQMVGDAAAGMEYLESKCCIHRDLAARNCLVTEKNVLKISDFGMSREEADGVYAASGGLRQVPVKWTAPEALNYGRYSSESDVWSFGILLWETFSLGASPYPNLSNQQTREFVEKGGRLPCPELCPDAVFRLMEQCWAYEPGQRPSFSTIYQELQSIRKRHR

[8] = target: Fyn (UniProt P06241); test: as above
Fyn, sequence (P06241 whole entry, looked up): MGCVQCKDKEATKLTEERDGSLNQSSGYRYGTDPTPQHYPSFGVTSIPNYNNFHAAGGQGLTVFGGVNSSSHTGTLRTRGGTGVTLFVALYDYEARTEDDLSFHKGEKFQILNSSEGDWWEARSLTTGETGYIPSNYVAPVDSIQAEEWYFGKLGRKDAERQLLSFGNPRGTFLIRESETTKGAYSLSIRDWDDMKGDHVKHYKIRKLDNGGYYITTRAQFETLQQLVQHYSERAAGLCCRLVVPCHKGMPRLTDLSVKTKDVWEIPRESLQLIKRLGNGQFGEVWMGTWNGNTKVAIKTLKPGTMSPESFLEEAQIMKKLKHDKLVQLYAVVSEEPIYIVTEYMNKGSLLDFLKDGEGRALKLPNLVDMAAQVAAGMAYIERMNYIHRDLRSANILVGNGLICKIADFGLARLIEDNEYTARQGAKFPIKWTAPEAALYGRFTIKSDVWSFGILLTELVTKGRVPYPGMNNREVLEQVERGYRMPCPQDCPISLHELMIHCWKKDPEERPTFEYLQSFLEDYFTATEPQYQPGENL

[9] = target: Hck (UniProt P08631); test: as above
Hck, sequence (P08631 whole entry, looked up): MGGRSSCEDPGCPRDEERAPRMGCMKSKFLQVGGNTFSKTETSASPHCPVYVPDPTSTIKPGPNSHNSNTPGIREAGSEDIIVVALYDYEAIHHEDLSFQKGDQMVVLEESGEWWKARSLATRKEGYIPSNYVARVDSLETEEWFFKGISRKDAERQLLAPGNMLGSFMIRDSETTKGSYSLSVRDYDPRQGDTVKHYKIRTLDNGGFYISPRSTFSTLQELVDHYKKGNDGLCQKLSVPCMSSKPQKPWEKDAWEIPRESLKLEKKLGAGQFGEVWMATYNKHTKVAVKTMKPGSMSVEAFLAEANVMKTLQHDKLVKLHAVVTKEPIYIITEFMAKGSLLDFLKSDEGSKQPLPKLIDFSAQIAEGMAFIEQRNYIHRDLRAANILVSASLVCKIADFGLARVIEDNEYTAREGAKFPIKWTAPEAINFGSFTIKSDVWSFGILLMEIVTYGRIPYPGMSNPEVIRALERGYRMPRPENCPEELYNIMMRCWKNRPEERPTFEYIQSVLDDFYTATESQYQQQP

[10] = target: Jak2 (UniProt O60674); test: as above
[11] = target: MERTK (UniProt Q12866); test: as above
MERTK, sequence (Q12866 whole entry, looked up): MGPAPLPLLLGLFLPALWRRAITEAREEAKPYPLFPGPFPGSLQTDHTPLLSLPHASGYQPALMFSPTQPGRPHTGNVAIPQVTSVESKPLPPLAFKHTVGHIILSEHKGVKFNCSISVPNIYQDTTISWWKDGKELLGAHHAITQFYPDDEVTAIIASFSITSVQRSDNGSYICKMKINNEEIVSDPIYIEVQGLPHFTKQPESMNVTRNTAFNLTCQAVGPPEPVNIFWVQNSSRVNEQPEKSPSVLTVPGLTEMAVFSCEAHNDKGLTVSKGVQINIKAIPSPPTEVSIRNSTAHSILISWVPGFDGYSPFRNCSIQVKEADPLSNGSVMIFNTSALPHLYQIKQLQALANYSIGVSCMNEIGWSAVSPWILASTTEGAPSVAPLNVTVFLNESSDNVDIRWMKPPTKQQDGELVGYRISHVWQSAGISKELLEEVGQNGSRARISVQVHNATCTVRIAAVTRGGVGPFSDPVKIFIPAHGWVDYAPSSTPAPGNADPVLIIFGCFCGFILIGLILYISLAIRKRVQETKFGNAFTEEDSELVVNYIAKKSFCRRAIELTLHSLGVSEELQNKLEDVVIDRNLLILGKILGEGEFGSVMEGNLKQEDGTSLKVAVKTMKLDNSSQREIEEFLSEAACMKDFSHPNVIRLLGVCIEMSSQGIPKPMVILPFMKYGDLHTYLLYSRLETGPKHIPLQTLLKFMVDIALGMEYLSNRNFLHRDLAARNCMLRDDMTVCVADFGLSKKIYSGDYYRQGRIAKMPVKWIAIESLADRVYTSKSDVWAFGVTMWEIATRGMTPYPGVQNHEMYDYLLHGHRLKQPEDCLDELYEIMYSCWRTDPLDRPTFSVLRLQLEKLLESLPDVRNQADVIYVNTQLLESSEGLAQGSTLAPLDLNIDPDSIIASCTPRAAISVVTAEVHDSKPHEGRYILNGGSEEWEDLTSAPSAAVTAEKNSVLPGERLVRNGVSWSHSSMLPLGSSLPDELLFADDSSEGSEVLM

[12] = tested on: c-Abl (mouse); test: as above
[13] = tested on: c-Src; test: as above
[14] = target: Grb2 SH2 (UniProt P62993); test: SH2 binding enrichment of the phosphorylated peptide, bacterial display (enrichment ratio); higher = better substrate or ligand; peptides without Tyr show the background
[15] = target: SHP2-C SH2; test: as above
[16] = target: c-Src SH2; test: as above
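Wherever SH2 binding enrichment of the phosphorylated peptide, bacterial display is given: peptide library displayed on the E. coli surface as eCPX fusions, selected cells deep-sequenced, score is each peptide's frequency after selection divided by its frequency in the input.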
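Wherever phosphorylation enrichment, bacterial display is given: 11-residue human phosphosite peptides and single-mutation variants displayed on the E. coli surface, counted by deep sequencing, each peptide's frequency after selection divided by its frequency in the unselected input library; frequency after pTyr selection over input frequency; kinase dosed for 20-30% of maximal phosphorylation in three min.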

Sequence | SH2 binding enrichment [14] | SH2 binding enrichment [15] | SH2 binding enrichment [16] | phosphorylation enrichment [1] | phosphorylation enrichment [2] | phosphorylation enrichment [3] | phosphorylation enrichment [4] | phosphorylation enrichment [5] | phosphorylation enrichment [6] | phosphorylation enrichment [7] | phosphorylation enrichment [8] | phosphorylation enrichment [9] | phosphorylation enrichment [10] | phosphorylation enrichment [11] | phosphorylation enrichment [12] | phosphorylation enrichment [13]
RLLVVYPGTQR [HBB_Y36_W38G] | 1.48 | 1.27 | 1.05 | 0.918 | 0.539 | 0.683 | 0.544 | 0.703 | 0.42 | 0.984 | 0.484 | 0.526 | 0.836 | 0.512 | 0.739 | 0.48
RLLVVYPRTQR [HBB_Y36_W38R] | 0.799 | 0.429 | 0.581 | 1.05 | 0.457 | 0.81 | 0.685 | 0.525 | 0.619 | 1.28 | 0.785 | 0.704 | 1.07 | 0.658 | 0.799 | 0.484
RLLVVYPWPQR [HBG2_Y36_T39P] | 1.8 | 1.67 | 1.46 | 0.97 | 0.443 | 0.606 | 0.527 | 0.703 | 0.512 | 1.7 | 0.489 | 0.518 | 0.617 | 0.917 | 0.494 | 0.456
RLQEGYDHSFF [ESD_Y258_YF] | 1.1 | 0.622 | 1.01 | 1.12 | 0.457 | 0.364 | 0.52 | 0.57 | 0.422 | 0.794 | 0.427 | 0.508 | 0.85 | 0.538 | 0.728 | 0.824
RLRIDYERVSQ [DSP_Y1542] | 1.07 | 1.12 | 0.821 | 1.08 | 1.25 | 0.613 | 0.543 | 0.878 | 0.702 | 1.46 | 0.43 | 0.531 | 1.01 | 0.539 | 0.742 | 0.412
RLVVVYPWTQR [HBB_Y36_L33V] | 1.45 | 1.5 | 0.954 | 1.07 | 0.575 | 1.23 | 0.491 | 1.1 | 0.652 | 1.17 | 0.771 | 0.646 | 1.2 | 0.727 | 0.846 | 0.709
RMSRSYPTGLA [ADM_Y52_S50R] | 0.721 | 0.548 | 0.425 | 0.497 | 0.382 | 0.349 | 0.36 | 0.459 | 0.319 | 0.594 | 0.381 | 0.39 | 0.42 | 0.454 | 0.594 | 0.377
RPAFTYATLIR [FOXP3_Y342_P339A] | 1.66 | 7.65 | 1.42 | 1.19 | 2.25 | 1.17 | 0.817 | 0.868 | 0.718 | 1.59 | 2.01 | 3.08 | 1.55 | 1.64 | 1.4 | 6.49
RRNTCYASIAK [ACADM_Y353_Y352C] | 0.784 | 7.11 | 3.02 | 0.369 | 0.287 | 0.332 | 0.272 | 0.347 | 0.424 | 0.467 | 0.4 | 0.391 | 0.294 | 0.332 | 0.333 | 0.279
RYVVLYDAELT [ERCC4_Y581] | 1.47 | 7.24 | 6.75 | 1.3 | 2.77 | 1.96 | 0.736 | 1.04 | 0.629 | 1.49 | 0.657 | 0.66 | 1.24 | 1.98 | 0.817 | 0.605
SDIEEYVHRIG [DDX3X_Y525] | 0.994 | 0.892 | 0.534 | 0.978 | 0.473 | 0.456 | 0.426 | 0.567 | 0.367 | 0.972 | 0.429 | 0.455 | 0.791 | 0.384 | 0.953 | 0.41
SDRNLYSKNLV [CFAP58_Y501] | 0.823 | 0.811 | 0.423 | 0.626 | 0.268 | 0.38 | 0.325 | 0.363 | 1.03 | 0.516 | 0.411 | 0.555 | 0.491 | 0.748 | 0.467 | 0.435
SDVSSYLEGQV [GCG_Y110_A115V] | 0.81 | 0.569 | 0.479 | 0.924 | 0.616 | 0.534 | 0.532 | 0.735 | 0.547 | 1.24 | 0.557 | 0.511 | 1.09 | 0.478 | 0.838 | 0.52

Further lines, with some results ahead:

SH2 binding enrichment [14] | SH2 binding enrichment [15] | SH2 binding enrichment [16] | Sequence | phosphorylation enrichment [1] | phosphorylation enrichment [2] | phosphorylation enrichment [3] | phosphorylation enrichment [4] | phosphorylation enrichment [5] | phosphorylation enrichment [6] | phosphorylation enrichment [7] | phosphorylation enrichment [8] | phosphorylation enrichment [9] | phosphorylation enrichment [10] | phosphorylation enrichment [11] | phosphorylation enrichment [12] | phosphorylation enrichment [13]
0.884 | 0.634 | 0.393 | RLQKLYLDRNL [IGFALS_Y248] | 0.812 | 1.4 | 0.43 | 0.776 | 0.787 | 0.795 | 1.23 | 0.811 | 0.975 | 1.63 | 0.868 | 1.16 | 0.851
0.958 | 0.895 | 1.23 | RPPELYALMSD [ZAP70_Y569_C564R] | 2.05 | 14.6 | 3.94 | 1.44 | 1.36 | 1.17 | 2.19 | 1.28 | 2.17 | 2.28 | 15.2 | 1.81 | 1.84
0.695 | 0.504 | 0.477 | RRAKGYPIYLY [ITGB2_Y125_D128Y] | 0.997 | 0.44 | 0.624 | 0.59 | 1.18 | 0.652 | 0.922 | 0.684 | 0.807 | 0.682 | 0.698 | 0.951 | 1.04
0.802 | 0.564 | 0.455 | RRGFLYDSDEE [MCM2_Y137_L135F] | 0.629 | 0.397 | 0.686 | 0.429 | 0.458 | 0.501 | 0.761 | 0.512 | 0.764 | 0.812 | 0.589 | 0.679 | 0.625
0.538 | 0.526 | 0.384 | RRGMPYGGRGD [TGM1_Y312] | 0.878 | 0.839 | 0.881 | 0.686 | 0.904 | 0.746 | 0.618 | 0.749 | 0.739 | 0.686 | 0.871 | 0.75 | 0.68
0.915 | 1 | 0.526 | RRNNSYTCYTA [SLC20A2_Y386] | 1.04 | 1.81 | 0.678 | 0.645 | 0.536 | 0.615 | 1.2 | 0.73 | 0.523 | 1.24 | 0.665 | 1.02 | 0.865
0.81 | 0.441 | 1.14 | RSIGEYDVLRA [PRKDC_Y2936_G2941A] | 0.887 | 0.944 | 1.13 | 0.772 | 0.818 | 0.446 | 1.31 | 1.06 | 7.58 | 0.703 | 0.817 | 1.87 | 1.17
0.83 | 0.712 | 0.553 | RSSKMYLKTRS [LPL_Y329] | 1.07 | 0.484 | 0.792 | 0.8 | 0.885 | 0.541 | 1.24 | 0.631 | 0.758 | 0.827 | 1.53 | 0.585 | 0.452
0.628 | 0.58 | 0.504 | RSSKRYLKTRS [LPL_Y329_M328R] | 1.4 | 0.919 | 1.11 | 1.03 | 1.11 | 0.852 | 1.17 | 0.937 | 0.894 | 0.725 | 1.24 | 1.03 | 0.713
0.981 | 0.964 | 0.448 | RSSPTYRDCLQ [LARGE2_Y682] | 1.45 | 0.556 | 0.472 | 0.523 | 0.522 | 0.458 | 0.858 | 0.469 | 0.385 | 0.667 | 0.42 | 0.539 | 0.369
1.2 | 0.638 | 1.26 | RSYSPYDYQPC [TNS1_Y796] | 1.52 | 1.81 | 2.31 | 1.27 | 1.06 | 0.894 | 0.912 | 3.66 | 1.29 | 0.789 | 3.28 | 0.668 | 3.15
0.838 | 0.453 | 0.304 | RTVDVYFGPQM [KIRREL3_Y332_R336Q] | 1.51 | 1.04 | 0.677 | 0.824 | 0.919 | 0.71 | 1.15 | 1.45 | 1.73 | 1.25 | 0.577 | 1.53 | 1.73
0.901 | 0.593 | 0.348 | RTVDVYFGPRM [KIRREL3_Y332] | 1.15 | 0.643 | 1.33 | 0.758 | 1.23 | 0.711 | 1.14 | 1.06 | 1.5 | 0.618 | 0.591 | 0.65 | 0.72
0.959 | 0.612 | 0.481 | RVYRDYVLKSA [HTATIP2_Y111_D108Y] | 1.07 | 1.01 | 0.76 | 0.833 | 0.825 | 0.493 | 1.05 | 0.645 | 0.841 | 0.836 | 0.693 | 0.624 | 0.794
0.878 | 1.57 | 0.966 | RYLYYYSYLLK [PTEN_Y178_V175L] | 1.93 | 3.51 | 1.94 | 3.1 | 2.91 | 0.676 | 1.7 | 0.58 | 1.65 | 3.29 | 5.64 | 2.23 | 1.76
1.09 | 1.39 | 0.857 | RYVYYYSYLLK [PTEN_Y178] | 1.74 | 2.55 | 1.64 | 4.48 | 3.85 | 1.09 | 1.82 | 1.15 | 1.99 | 2.76 | 5.99 | 1.83 | 2.48
0.852 | 0.535 | 0.487 | SAGSSYSISGI [PAX5_Y179] | 0.53 | 0.368 | 0.347 | 0.395 | 0.438 | 0.419 | 0.516 | 0.412 | 0.386 | 0.559 | 0.426 | 0.417 | 0.457
0.811 | 0.615 | 0.516 | SARFRYLVAEK [LDHB_Y173_M175V] | 0.698 | 0.351 | 0.486 | 0.424 | 0.425 | 0.447 | 0.635 | 0.415 | 0.458 | 0.607 | 0.327 | 0.569 | 0.449
0.997 | 0.938 | 0.638 | SASWTYVRWFD [PTDSS1_Y274_P269S] | 1.08 | 0.835 | 0.766 | 0.677 | 0.854 | 0.487 | 1.26 | 0.501 | 0.64 | 1.22 | 0.445 | 0.905 | 0.626
0.9 | 0.579 | 0.712 | SDGHEYIYVDR [PDGFRB_Y579_P584R] | 1.33 | 0.663 | 0.645 | 2.04 | 1.43 | 0.514 | 0.995 | 1.11 | 1.12 | 1.01 | 0.514 | 0.513 | 1.6
